In patent US20240117043A1 (SHANGHAI JUNSHI BIOSCIENCES, published 2024):

T1: human TIGIT on the surface of Jurkat-hTIGIT cells (human, UniProt Q495A1 22-244)
T1 construct: whole, on cells; also called human TIGIT on the surface of Jurkat cells
T1 sequence (looked up): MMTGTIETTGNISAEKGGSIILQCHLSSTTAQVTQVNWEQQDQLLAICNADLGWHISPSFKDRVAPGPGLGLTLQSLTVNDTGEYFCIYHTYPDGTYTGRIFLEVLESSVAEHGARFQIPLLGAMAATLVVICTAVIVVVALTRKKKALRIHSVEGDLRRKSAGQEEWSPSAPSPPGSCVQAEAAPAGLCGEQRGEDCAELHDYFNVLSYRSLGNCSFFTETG

T2: recombinant human TIGIT (His Tag) (human, UniProt Q495A1 22-141)
T2 construct: Coated antigen of the ELISA; not shown: His tag
T2 sequence (looked up): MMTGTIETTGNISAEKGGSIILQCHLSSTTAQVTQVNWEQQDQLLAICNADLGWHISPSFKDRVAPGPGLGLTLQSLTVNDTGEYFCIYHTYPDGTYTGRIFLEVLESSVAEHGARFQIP

T3: human CD112R-mFc protein (human, UniProt Q6DKI7 41-171, limits assumed)
T3 construct: also called human CD112R protein; not shown: mouse Fc (mFc)
T3 sequence (looked up): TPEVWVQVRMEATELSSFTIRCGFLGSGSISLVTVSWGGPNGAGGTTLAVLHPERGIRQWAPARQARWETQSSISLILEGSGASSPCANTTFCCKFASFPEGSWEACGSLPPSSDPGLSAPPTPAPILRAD

T4: recombinant human HX1 hCD112R Fc (human, UniProt Q6DKI7 41-171, limits assumed)
T4 construct: Coated antigen of the ELISA (Suzhou Junmeng); also called human CD112R; not shown: Fc part
T4 sequence (looked up): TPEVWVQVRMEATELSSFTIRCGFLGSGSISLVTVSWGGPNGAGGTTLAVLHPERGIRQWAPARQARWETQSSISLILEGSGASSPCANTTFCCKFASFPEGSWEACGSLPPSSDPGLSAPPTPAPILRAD


Tests used:
[1] = biological target: T1, human TIGIT on the surface of …; assay: flow cytometry, blocking of 1 ug/mL PVR-mFc binding to Jurkat-hTIGIT cells
Experimental: Jurkat-hTIGIT cells (human T lymphocytes, human TIGIT positive) were incubated with different concentrations of the bispecific antibodies JS-1, JS-3, JS-5 and JS-9 and 1 μg/mL human PVR-mFc protein at 4° C. for 30 min, then washed and incubated with a fluorescence-labeled anti-mouse IgG secondary antibody (1:200) in a dark place at 4° C. for 30 min. Finally, the cells were collected using a flow cytometer (BD Canto II), and the fluorescent antibodies bound to the cell surface were detected. Raw data were analyzed using FlowJo to obtain MFI values, antibody dose-dependent binding curves (FIG. 4) were fitted using GraphPad, and IC50 was calculated. The positive controls were hu20 (a recombinant humanized anti-TIGIT monoclonal antibody) and JS-Ref (Hengrui) (an anti-TIGIT/CD112R bispecific antibody of Hengrui, expressed and purified according to the sequence of the patent WO2021180205), and the negative control was an anti-KLH-hIgG4 antibody.

[2] = biological target: T2, recombinant human TIGIT (His Tag); assay: ELISA, plate coated with recombinant human TIGIT (His Tag), detection with HRP anti-human IgG4 Fc; unit taken from the concentration axis [2a]
Experimental: (§1) 2. Procedures [0241] a. A 96-well plate was coated with 1.5 μg/mL recombinant human TIGIT (His Tag) (Suzhou Junmeng) as the antigen at 100 μL/well and incubated at 37° C. for 1.5 h. [0242] b. The plate was washed 4 times with 300 μL/well 1×PBST, and 2% BSA was added at 200 μL/well. The plate was blocked at 37° C. for 1.5 h. [0243] c. The plate was washed 4 times with 300 μL/well 1×PBST, and serial dilutions of the bispecific antibodies JS-1,3,5,9 and a negative control: antibody (anti-KLH hIgG4) (initial concentration 1.0 μg/mL, 3-fold serially diluted to 12 concentration points, 100 μL/well) were added. The plate was incubated at 37° C. for 1 h. [0244] d. The plate was washed 4 times with 300 μL/well 1×PBST. [0245] e. 5000-fold diluted horseradish peroxidase (HRP)-conjugated mouse anti-human IgG4 Fc antibody (Southern Biotech, 9200-05) was added at 100 μL/well, and the plate was incubated at 37° C. for 1 h. […] The plate was washed 4 times with 300 μL/well 1×PBST. [0247] g. 0.1 mg/mL TMB was added at 100 μL/well, and after the plate was incubated at 37° C. for 15 min, a 2 M solution of hydrochloric acid was added at 100 μL/well to stop the reactions. [0248] h. The absorbance was measured at 450 nm/620 nm on a microplate reader, and data were analyzed using Graphpad Prism7.

[3] = biological target: T2, recombinant human TIGIT (His Tag); assay: ELISA, plate coated with recombinant human TIGIT (His Tag), detection with HRP anti-human IgG4 Fc; unit taken from the concentration axis [2b]
Experimental: as §1

[4] = biological target: T3, human CD112R-mFc protein; assay: flow cytometry, blocking of 1 ug/mL CD112R-mFc binding to CHO hCD112 cells
Experimental: CHO hCD112 cells (Chinese hamster ovary cells, human CD112 positive) were incubated with different concentrations of the bispecific antibodies JS-1, JS-3, JS-5 and JS-9 and 1 μg/mL human CD112R-mFc protein at 4° C. for 30 min, then washed twice and incubated with a fluorescence-labeled anti-mouse IgG secondary antibody (1:200) in a dark place at 4° C. for 30 min. Finally, the cells were collected using a flow cytometer (BD Canto II), and the fluorescent antibodies bound to the cell surface were detected. Raw data were analyzed using FlowJo to obtain MFI values, antibody dose-dependent binding curves (FIG. 4) were fitted using GraphPad, and IC50 was calculated. The positive controls were hu52 (a recombinant humanized anti-CD112R monoclonal antibody) and JS-Ref (Hengrui) (an anti-TIGIT/CD112R bispecific antibody of Hengrui, expressed and purified according to the sequence of the patent WO2021180205), and the negative control was an anti-KLH-hIgG1 antibody.

[5] = biological target: T4, recombinant human HX1 hCD112R Fc; assay: ELISA, plate coated with recombinant human HX1 hCD112R Fc, detection with HRP anti-human IgG4 Fc; unit taken from the concentration axis [3a]
Experimental: (§2) 2. Procedures [0255] a. A 96-well plate was coated with 1.0 μg/mL recombinant human HX1 hCD112R Fc (Suzhou Junmeng) as the antigen at 100 μL/well and incubated at 37° C. for 1.5 h. [0256] b. The plate was washed 4 times with 300 μL/well 1×PBST, and 2% BSA was added at 200 μL/well. The plate was blocked at 37° C. for 1.5 h. [0257] c. The plate was washed 4 times with 300 μL/well 1×PBST, and serial dilutions of the bispecific antibodies JS-1,3,5,9 and a negative control: antibody (anti-KLH hIgG4) (initial concentration 3.0 μg/mL, 3-fold serially diluted to 12 concentration points, 100 μL/well) were added. The plate was incubated at 37° C. for 1 h. [0258] d. The plate was washed 4 times with 300 μL/well 1×PBST. [0259] e. 5000-fold diluted horseradish peroxidase (HRP)-conjugated mouse anti-human IgG4 Fc antibody (Southern Biotech, 9200-05) was added at 100 μL/well, and the plate was incubated at 37° C. for 1 h. [0260] f. The plate was washed 4 times with 300 μL/well 1×PBST. [0261] g. 0.1 mg/mL TMB was added at 100 μL/well, and after the plate was incubated at 37° C. for 15 min, a 2 M solution of hydrochloric acid was added at 100 μL/well to stop the reactions. […] The absorbance was measured at 450 nm/620 nm on a microplate reader, and data were analyzed using Graphpad Prism7.

[6] = biological target: T4, recombinant human HX1 hCD112R Fc; assay: ELISA, plate coated with recombinant human HX1 hCD112R Fc, detection with HRP anti-human IgG4 Fc; unit taken from the concentration axis [3b]
Experimental: as §2

| Binder | IC50 [1] [nM] | EC50 [2] [ng/mL] | EC50 [3] [ng/mL] | IC50 [4] [nM] | EC50 [5] [ng/mL] | EC50 [6] [ng/mL] |
| --- | --- | --- | --- | --- | --- | --- |
| hu20 (a recombinant humanized anti-TIGIT monoclonal antibody) (antibody, V domains shown, vector hu20-2O18HC-3; also called hu20 mAb; anti-TIGIT antibody; not shown: heavy chain constant region) VH: QVQLVQSGAEVKKPGASVKVSCKTSGYAFTEYTMHWVRQAPGKGLEWMGGINPNTGGTTYNQKFQGRVTLTVDKSSSTAYMELSSLRSEDTVVYYCAKLLRLMYYFDYWGQGTLVTVSS VL: DIQMTQSPSSLSASVGDRVTITCQASQDVRTAVAWYQQKPGKAPKLLIYSASYRYTGVPSRFSGSGSGTDFTFTISSLQPEDIATYYCHQHYITPWTFGGGTKVEIKR | 1.98 | 20.9 | 6.63 | – | – | – |
| hu52 (a recombinant humanized anti-CD112R monoclonal antibody) (antibody, human IgG4 S228P, kappa, V domains shown, also called hu52 mAb; anti-CD112R antibody) VH: EVQLVESGGGLVKPGGSLRLSCAASGFTFSSYHMSWVRQAPGKGLELVSAINSNGINTYYLDTVKGRFTISRDNAKNSLYLQMNSLRAEDTAVYYCARHEDYYGFAMDYWGQGTLVTVSS VL: DIVMTQSPDSLAVSLGERATINCKASQSVSNDVAWYQQKPGQPPKLLIYYVSHRFTGVPDRFSGSGSGTDFTLTISSLQAEDVAVYFCHQAYRSPWTFGQGTKLEIKR | – | – | – | 0.601 | 2.46 | 2.62 |
